Reference: article PMC11626150 (Proceedings of the National Academy of Sciences of the …, 2024)

Experiments:
Assay in all cases: ELISA
[1] = biological target: T1, HEV genotype 1 E2(I) dimer protein (hepatitis E virus genotype 1 (human HEV), UniProt P29326)
[2] = biological target: HEV genotype 4 E2(IV) (Hepatitis E virus genotype 4, swine …, UniProt D3VV84, strain)
[3] = biological target: Other eight antigen mutants (E2 mutants preincubated with 8C11)
[4] = biological target: T1, HEV genotype 1 E2(I) dimer protein; remark: listed apart in the source

Binder	ET50 [1]	binding result [2]	binding result [4]	also measured
neutralizing monoclonal antibody 8H3 (antibody, V domains shown) VH: QVQLKESGPGLVAPSQSLSITCTVSGFSLIGYGVNWVRQPPEKGLEWLGMIWGDGSTDYNSALKSRLSITKDNSKSQVFLKMNSLQTDDTARYYCAMGVRPDPFDYWGQGTLVTVSA VL: NIMMTQSPSSLAVSAGEKVTMSCKSSQSVLYSSNQKNYLAWYQQKPGQSPKLLIYWASARESGVPDRFTGSGSGTDFTLTINSVQTEDLAVYYCHQYLSSYTFGGGTKLEIK	4660 dilution fold	binds		ET50 (after a non-related mAb, anti-HPV mAb A12A3) [1]: 3030 dilution fold; fold increase in synergy (8H3 binding with 8C11 pre-bound) [3]: 10 fold
neutralizing monoclonal antibody 8C11 (antibody, V domains shown) VH: QVTLKESGPGILQPSQTLSLTCSFSGFSLSTSGMGVGWIRQPSGKGLEWLAHIWWDDVKRYSPALKSRLTISKDTSSSQLFLKIASVDTADTATYYCARIKSVITTGDYALDYWGQGTSVAVSS VL: DIQMTQSPASLSVSVGETVTITCRASEIIYSNLAWYQQKQGKSPQLLVYSATNLAEGVPSRFSGSGSGTQYSLKINSLQSEDFGSYYCQHFWGNPWTFGGGTKLEIK	172000 dilution fold	binds		ET50 (after a non-related mAb) [1]: 188000 dilution fold
8C11 mAb mutant D88A (heavy chain) (antibody, V domains shown) VH: QVTLKESGPGILQPSQTLSLTCSFSGFSLSTSGMGVGWIRQPSGKGLEWLAHIWWDDVKRYSPALKSRLTISKDTSSSQLFLKIASVATADTATYYCARIKSVITTGDYALDYWGQGTSVAVSS VL: DIQMTQSPASLSVSVGETVTITCRASEIIYSNLAWYQQKQGKSPQLLVYSATNLAEGVPSRFSGSGSGTQYSLKINSLQSEDFGSYYCQHFWGNPWTFGGGTKLEIK			binds	
8C11 mAb mutant S67A (heavy chain) (antibody, V domains shown) VH: QVTLKESGPGILQPSQTLSLTCSFSGFSLSTSGMGVGWIRQPSGKGLEWLAHIWWDDVKRYSPALKARLTISKDTSSSQLFLKIASVDTADTATYYCARIKSVITTGDYALDYWGQGTSVAVSS VL: DIQMTQSPASLSVSVGETVTITCRASEIIYSNLAWYQQKQGKSPQLLVYSATNLAEGVPSRFSGSGSGTQYSLKINSLQSEDFGSYYCQHFWGNPWTFGGGTKLEIK			binds	
8C11 mAb mutant K66A (heavy chain) (antibody, V domains shown) VH: QVTLKESGPGILQPSQTLSLTCSFSGFSLSTSGMGVGWIRQPSGKGLEWLAHIWWDDVKRYSPALASRLTISKDTSSSQLFLKIASVDTADTATYYCARIKSVITTGDYALDYWGQGTSVAVSS VL: DIQMTQSPASLSVSVGETVTITCRASEIIYSNLAWYQQKQGKSPQLLVYSATNLAEGVPSRFSGSGSGTQYSLKINSLQSEDFGSYYCQHFWGNPWTFGGGTKLEIK			binds	
